Measurements as given in publication PMC6265470, “Structural, functional and biological insights into the role of Mycobacterium tuberculosis VapBC11 toxin–antitoxin system: targeting a tRNase to tackle mycobacterial adaptation” (Nucleic Acids Research, 2018).
pKd: −log10 of the molar value.

Assays:
[1] = target: VapC11 as co-expressed and co-purified with VapB11 in the VapBC11 complex (Mycobacterium tuberculosis) (UniProt P9WFA4); test: […] (pH 8.0), 150 mM NaCl, […]
[2] = tested on: VapC11 D5A (Mycobacterium tuberculosis); test: BLI; settings: BLI: 20 mM HEPES pH 7.5, 150 mM NaCl, 25 C

Substance	percent of the population as heterooctamer [1]	stoichiometry N (VapB11 per VapC11 (2:4)) [1]	stoichiometry N (VapB11 per VapC11 (4:4)) [1]	pKd [2]
VapB11 (residues 6-72) as co-expressed and co-purified with VapC11 in the VapBC11 complex (from UniProt P9WLU2 6-72) (domain or fragment)	80%	0.5	1	
tRNA-LeuCAG (leuT)				9.30
